Measurements: publication PMC5524982

Legend:
[1] = biological target: Proteus mirabilis ScsC (PmScsC), wild type, lacking the predicted secretion signal (Proteus mirabilis); experiment: crystal structure; extended structure: oxidized PmScsC with 2.5 mM copper(II) chloride, 32% Jeffamine M-600 pH 7, 0.1 M HEPES pH 8, 20 °C; one molecule in the asymmetric unit, trimer generated by crystal symmetry
[2] = biological target: Proteus mirabilis ScsC (PmScsC), wild type, lacking the predicted secretion signal (Proteus mirabilis); experiment: crystal structure; transitional structure: oxidized PmScsC, 2.85 M sodium malonate pH 5.8 with 0.1 M copper(II) chloride, 20 °C; 6 molecules (two trimers) in the asymmetric unit
[3] = biological target: Proteus mirabilis ScsC (PmScsC), wild type, lacking the predicted secretion signal (Proteus mirabilis); experiment: cross-linking; 150 μM purified PmScsC in 50 mM HEPES pH 8.5 with 3 mM DTSSP, 30 s–30 min, 23 °C; non-reducing SDS-PAGE, Coomassie; 50 mM DTT as control cleaves the cross-links
[4] = biological target: Proteus mirabilis ScsC (PmScsC), wild type, lacking the predicted secretion signal (Proteus mirabilis); experiment: SAXS; reduced PmScsC in 25 mM HEPES pH 7.5, 150 mM NaCl, 1 mM DTT; Australian Synchrotron SAXS-WAXS beamline; also pH 6.0-8.0 and 150-1,500 mM NaCl
[5] = biological target: Proteus mirabilis ScsC (PmScsC), wild type, lacking the predicted secretion signal (Proteus mirabilis); experiment: SEC-MALS; Superdex 200 or Superdex 75 10/300 GL, 25 mM Tris, 150 mM NaCl, pH 7.5; 500 μl of 3 mg ml^-1 injected, 1.0 ml min^-1
[6] = biological target: Selenomethionine-labelled PmScsC (Proteus mirabilis); experiment: crystal structure; compact structure: selenomethionine-labelled PmScsC, 2.85 M sodium malonate pH 5.8 with 0.1 M cobalt(II) chloride, 20 °C; 24 copies (8 trimers) in the asymmetric unit

Measured: stoichiometry N

Proteus mirabilis ScsC (PmScsC), wild type, lacking the predicted secretion signal (enzyme)
not listed: [6]
3: all other assays above

Selenomethionine-labelled PmScsC (enzyme)
3: [6]
